Test results as given in patent US8623997B2, “Variant Hhip1 protein and methods and uses thereof” (Curis, Inc., priority 2008, dated 2014).

Assays:
[1] = target: T1, Shh649 binding to Hhip1β12 on 293 cells (Homo sapiens, UniProt Q15465); experiment: FACS: Ptch1-independent recruitment of Shh649 to 293 cells by Hhip1β12; details: 520 nM
T1 construct: made in house; host or cells: Shh649: E. coli Rosetta 2; Hhip1β12: Tni insect cells; both added to HEK-293 cells
Description: The critical residue for 5E1 binding, S177 shown marked with an asterisk (*), resides in the area of Shh that interacts with both Hhip and Ptch1. Numbering refers to human Shh (Fuse, N. et al. (1999) Proc. Natl. Acad. Sci. USA 96:10992-10999; Pepinsky R. B. et al. (2000) J. Biol. Chem. 275:10995-11001). […] Black bars show binding to Ptch1 cells for comparison. Data are the average mean fluorescence intensity and SDs of two independent (duplicate and triplicate) experiments normalized to Shh649 binding to Ptch1 cells in the absence of other proteins (“Ctrl”) in the same way as FIG. 15J. Shh649 and Hhip1β12 are present at 45- and 10-fold higher concentrations respectively than in FIG. 15J in order to detect the Ptch1-independent binding of Shh649 to Hhip1β12.
Shh649, conjugated to Dylight 649 (Pierce) at its C-terminus (vide supra), was incubated at 0.33 or 1 nM for 1 h on ice with various Hhip or control proteins prior to incubation with HEK-293 cells (293) or 293 cells expressing full length human Patched-1 (Ptch1-293 clone 10) (Carpenter D. et al. (1998) Proc. Natl. Acad. Sci. USA 95:13630-13634) in FACS buffer (3% FBS in PBS) for 1 h on ice. After washing 3 times in FACS buffer, live cells (sorted by propidium iodide exclusion) were analyzed by flow cytometry in the APC channel using a FACSCalibur (BD Biosciences). […]

Shh signaling = experiment: Gli-luciferase co-culture signaling assay (S12 fibroblasts overlaid with Shh-producing HT29 cells); assay type: cell-based, murine S12 fibroblasts / human HT29 cells; details: for IC50: 24 hrs, read-out: IC50 inhibition of Shh signaling
Description: Due to the lack of both N- and C-terminal lipid modifications of Shh and the absence of other cellular components, the in vitro assays may not fully recapitulate Hip-Shh interactions occurring in a cellular environment. Therefore, a co-culture assay consisting of murine S12 fibroblasts stably transfected with a Gli luciferase reporter gene and (Frank-Kamenetsky et al. (2002) J. Biol. 1:10) and human colorectal adenocarcinoma HT29 cells that secrete fully lipid-modified Shh (Yauch et al. (2008) Nature 455:406) was used to determine which extracellular domains of Hhip1β12 mediate inhibition of Shh signaling in mammalian cells.
Briefly, S12 cells, which are 10T1/2 fibroblasts stably transfected with 8× Gli-binding sites fused to a luciferase reporter (Frank-Kamenetsky et al. (2002) J. Biol. 1:10), were plated at 10,000 cells/well of a white-walled clear bottomed 96-well plate (Costar 3610) for […] in regular growth medium (HG-DMEM, 10% FBS, 1% glutamine). After 24 h, the media was removed and Shh-producing HT29 cells at 20,000 cells/well were plated and the co-culture was grown in regular media. After 24 h, the media was changed to 0.5% serum HG-DMEM±Hhip1β12 fragments and further incubated for 24 hrs to stimulate signaling. Gli-luciferase activity was measured using a HTS-Steady Lite luciferase detection kit (Perkin Elmer); multiple assays were carried out, each in triplicate. Data were fit to a 4-parameter sigmoidal equation, from which the IC50 was derived using Kaleidagraph (Synergy Software).

biotinylated-ShhN-Cys = target: T2, biotinylated-ShhN-Cys (Homo sapiens, UniProt Q15465); experiment: Bio-layer interferometry (Octet) binding kinetics of Hhip1β12 variants to Shh
T2 construct: ShhN-Cys (residues 24-197); His6 (N); made in house; host or cells: E. coli Rosetta 2
Protocol: The binding kinetics of the Hhip1β12 fragments as well as Hhip1β12 mutants were measured by bio-layer interferometry in the presence or absence of 10 mM EDTA on an Octet (Fortébio). Streptavidin high binding FA biosensors were loaded with biotinylated-ShhN-Cys in kinetic buffer (Fortébio). The loaded biosensors were washed and transferred to wells containing Hhip1β12 protein at concentrations of 1.2, 1.0, 0.8 and 0.6 μM in kinetic buffer. Hhip1β12 association and dissociation was measured for 30 and 20 min, respectively. Kinetic parameters (kon and koff) and affinities (KD) were calculated from a non-linear fit of the data based on a 1:1 binding model between Hhip1β12 and Shh using the Octet software. Multiple independent measurements were performed.
In order to assess the contribution of residues in the Hhip1 L1, L2 and L3 loops for binding to Shh, a series of single alanine Hipβ12 mutants were made using the QuickChange DNA mutagenesis kit (Stratagene) using the manufacturer's protocol, and their affinity for Shh was measured by bio-layer interferometry (as described in Example 2B). These mutations included Hhip1β12 mutants 1312A, E381A, M382A, D383A, D378A, T418A, Q420A, E380A, D387A and ΔL2.

Ptch1 = experiment: FACS assay of Shh649 binding to Ptch1 expressing 293 cells and its competition; design: species or system human
Protocol: Shh649 (1 nM) preincubated with indicated proteins was bound to Ptch1 expressing cells, washed and analyzed by FACS. The average mean Shh649 fluorescence intensity (MFI) of two independent dilution series was plotted versus inhibitor concentration, with error bars denoting standard deviations. […] Assays were carried out using octylated Ihh wildtype and T154I proteins. Concentration dependent relative luciferase units (RLU) are plotted as the average of four independent dilution series±standard deviation and normalized to the maximal Ihh WT stimulation on each plate as 100%. […] The data is representative of three independent experiments.
Shh is in the same orientation as in the Hhip-Shh complex in Panel A. Zn^2+ and Ca^2+ cations are shown. […] Surface representation of Shh with residues within 4.5 Å of Hhip (shaded gray) and Cdon (hatched areas). Area within dotted boarder indicates the boundaries of the Cdon footprint, which overlaps the Hhip binding surface. […] Shh histidine residues are shown as sticks with nitrogen atoms shaded dark. The Hhip L2 loop is shown in transparent surface and Zn^2+ cation is shown. Histidine 35 is not shown since the ordered portion of the Shh structure begins at L40. […] The spectral region of the histidine side chains is shown. […] The average mean Shh649 fluorescence intensity (MFI) of two independent dilution series was plotted versus protein concentration, with error bars denoting standard deviations. Ctrl refers to the His-6 (SEQ ID NO: 87) tagged HGF β protein. […] Shh649 (0.33 nM) was preincubated with 56 nM (170-fold excess) of Hhipβ12 wildtype or L2 mutant proteins, 5E1 or controls then bound to Ptch1 cells (black) or 293 cells (gray), washed and analyzed by FACS. Shh649 binding to Ptch1 cells in the absence of inhibitors was normalized to 100% and the data expressed as a percentage of this signal (average of two independent duplicates with standard deviations). Ctrl and CtrlFc refer to HGF β and the IgG1 isotype control Trastuzumab, respectively. The data is representative of at least three independent experiments.
Shh649, conjugated to Dylight 649 (Pierce) at its C-terminus (vide supra), was incubated at 0.33 or 1 nM for 1 h on ice with various Hhip or control proteins prior to incubation with HEK-293 cells (293) or 293 cells expressing full length human Patched-1 (Ptch1-293 clone 10) (Carpenter D. et al. (1998) Proc. Natl. Acad. Sci. USA 95:13630-13634) in FACS buffer (3% FBS in PBS) for 1 h on ice. After washing 3 times in FACS buffer, live cells (sorted by propidium iodide exclusion) were analyzed by flow cytometry in the APC channel using a FACSCalibur (BD Biosciences). Control proteins included His6-Shh, His6-Ihh, HGF β-His639, Trastuzumab (Genentech, Inc.) as a human IgG1 isotype control for Hhip1β12-Fc, and mIgG1 (Molecular Probes Z25105) as a murine Mab control for anti-Shh 5E1 Mab34.

[2] = 1:1 binding model, n.d stands for no binding detected

Molecule	binding to 293 cells at high concentrations [1]	IC50 (Shh signaling; Gli-luciferase co-culture) [nM]	Kd (biotinylated-ShhN-Cys; [2]) [nM]	koff × 10^−4 (biotinylated-ShhN-Cys; [2])	kon × 10^3 (biotinylated-ShhN-Cys; [2])	competition of Shh649 binding to Ptch1 cells (in words) (Ptch1)	IC50 fold change versus wildtype Hipβ12 (Shh signaling; Gli-luciferase co-culture) [fold]	maximal inhibition (Shh signaling; at saturating conditions) [%]	Shh binding of Hhip1β12 mutants (in words) (biotinylated-ShhN-Cys; bio-layer interferometry, compared with WT Hhip1β12)
Hhip1β12: β-propeller-EGF1-EGF2 construct (SEQ ID NO:12), residues 193-667 of SEQ ID NO:2, lacking putative Fz domain (protein, listed as Homo sapiens) SNYLDQMEEYDKVEEISRKHKHNCFCIQEVVSGLRQPVGALHSGDGSQRLFILEKEGYVKILTPEGEIFKEPYLDIHKLVQSGIKGGDERGLLSLAFHPNYKKNGKLYVSYTTNQERWAIGPHDHILRVVEYTVSRKNPHQVDLRTARVFLEVAELHRKHLGGQLLFGPDGFLYIILGDGMITLDDMEEMDGLSDFTGSVLRLDVDTDMCNVPYSIPRSNPHFNSTNQPPEVFAHGLHDPGRCAVDRHPTDININLTILCSDSNGKNRSSARILQIIKGKDYESEPSLLEFKPFSNGPLVGGFVYRGCQSERLYGSYVFGDRNGNFLTLQQSPVTKQWQEKPLCLGTSGSCRGYFSGHILGFGEDELGEVYILSSSKSMTQTHNGKLYKIVDPKRPLMPEECRATVQPAQTLTSECSRLCRNGYCTPTGKCCCSPGWEGDFCRTAKCEPACRHGGVCVRPNKCLCKKGYLGPQCE	bind nonspecifically to 293 cells	5	220	9.4 × 10^−4 [s^−1]	4.3 × 10^3 [M^−1 × s^−1]	inhibit Ptch1-specific Shh cell binding in a dose-dependent manner			
Hhip1β12-Fc: Fc-tagged Hhip1β12 (protein, left off: a dimerising Fc or GST) SNYLDQMEEYDKVEEISRKHKHNCFCIQEVVSGLRQPVGALHSGDGSQRLFILEKEGYVKILTPEGEIFKEPYLDIHKLVQSGIKGGDERGLLSLAFHPNYKKNGKLYVSYTTNQERWAIGPHDHILRVVEYTVSRKNPHQVDLRTARVFLEVAELHRKHLGGQLLFGPDGFLYIILGDGMITLDDMEEMDGLSDFTGSVLRLDVDTDMCNVPYSIPRSNPHFNSTNQPPEVFAHGLHDPGRCAVDRHPTDININLTILCSDSNGKNRSSARILQIIKGKDYESEPSLLEFKPFSNGPLVGGFVYRGCQSERLYGSYVFGDRNGNFLTLQQSPVTKQWQEKPLCLGTSGSCRGYFSGHILGFGEDELGEVYILSSSKSMTQTHNGKLYKIVDPKRPLMPEECRATVQPAQTLTSECSRLCRNGYCTPTGKCCCSPGWEGDFCRTAKCEPACRHGGVCVRPNKCLCKKGYLGPQCE	bind nonspecifically to 293 cells					inhibit Ptch1-specific Shh cell binding in a dose-dependent manner			
D383R: Hhip L2 mutant of Hhip1β12 with D383 changed to R (protein) MLKMLSFKLLLLAVALGFFEGDAKFGERNEGSGARRRRCLNGNPPKRLKRRDRRMMSQLELLSGGEMLCGGFYPRLSCCLRSDSPGLGRLENKIFSVTNNTECGKLLEEIKCALCSPHSQSLFHSPEREVLERDLVLPLLCKDYCKEFFYTCRGHIPGFLQTTADEFCFYYARKDGGLCFPDFPRKQVRGPASNYLDQMEEYDKVEEISRKHKHNCFCIQEVVSGLRQPVGALHSGDGSQRLFILEKEGYVKILTPEGEIFKEPYLDIHKLVQSGIKGGDERGLLSLAFHPNYKKNGKLYVSYTTNQERWAIGPHDHILRVVEYTVSRKNPHQVDLRTARVFLEVAELHRKHLGGQLLFGPDGFLYIILGDGMITLDDMEEMRGLSDFTGSVLRLDVDTDMCNVPYSIPRSNPHFNSTNQPPEVFAHGLHDPGRCAVDRHPTDININLTILCSDSNGKNRSSARILQIIKGKDYESEPSLLEFKPFSNGPLVGGFVYRGCQSERLYGSYVFGDRNGNFLTLQQSPVTKQWQEKPLCLGTSGSCRGYFSGHILGFGEDELGEVYILSSSKSMTQTHNGKLYKIVDPKRPLMPEECRATVQPAQTLTSECSRLCRNGYCTPTGKCCCSPGWEGDFCRTAKCEPACRHGGVCVRPNKCLCKKGYLGPQCEQVDRNIRRVTRAGILDQIIDMTSYLLDLTSYIV		57				no inhibition	~13	~50	inability
